The numbers were not newly measured in article PMC10770464, which cites them from elsewhere.

The Kd is the concentration at which binding is half-saturated.

Data set [1] deals with High mobility group box-1 (Homo sapiens) (UniProt P09429).
The target in data set [2] is Apolipoprotein A (Homo sapiens) (UniProt P08519).
Data set [3] has as its target Hepatocyte growth factor (Homo sapiens) (UniProt P14210). The data set is described as follows: ELISA. On the technique in general: In an ELISA, binding on a coated surface is turned into a signal by an enzyme label.
UniProt P14210, sequence (P14210 495-728): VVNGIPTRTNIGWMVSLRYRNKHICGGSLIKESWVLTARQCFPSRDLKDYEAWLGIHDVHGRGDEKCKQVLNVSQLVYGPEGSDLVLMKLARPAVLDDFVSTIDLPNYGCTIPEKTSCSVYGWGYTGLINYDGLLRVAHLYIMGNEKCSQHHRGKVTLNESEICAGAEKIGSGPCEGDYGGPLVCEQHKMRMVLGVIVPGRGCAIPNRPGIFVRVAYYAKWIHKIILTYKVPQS
Data set [4] has as its target Tissue plasminogen activator (Homo sapiens) (UniProt P00750). The data set is described as follows: ELISA.
UniProt P00750, sequence (P00750 36-562): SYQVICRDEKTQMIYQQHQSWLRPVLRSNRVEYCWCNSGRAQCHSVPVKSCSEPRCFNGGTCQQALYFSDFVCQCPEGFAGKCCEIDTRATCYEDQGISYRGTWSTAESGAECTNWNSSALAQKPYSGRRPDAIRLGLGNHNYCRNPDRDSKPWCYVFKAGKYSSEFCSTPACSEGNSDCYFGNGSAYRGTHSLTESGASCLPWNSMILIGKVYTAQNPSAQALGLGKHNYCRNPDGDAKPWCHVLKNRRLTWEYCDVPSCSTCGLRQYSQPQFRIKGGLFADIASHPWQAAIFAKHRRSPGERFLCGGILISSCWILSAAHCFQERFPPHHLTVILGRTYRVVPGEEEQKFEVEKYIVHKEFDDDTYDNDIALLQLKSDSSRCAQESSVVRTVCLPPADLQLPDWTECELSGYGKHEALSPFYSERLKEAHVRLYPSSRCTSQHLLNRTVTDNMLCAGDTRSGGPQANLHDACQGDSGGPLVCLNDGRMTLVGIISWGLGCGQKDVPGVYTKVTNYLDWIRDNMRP
In data set [5] the target is Plasminogen (Homo sapiens) (UniProt P00747).
Data set [6] concerns the target Plasminogen kringle 4 (Homo sapiens) (UniProt P00747).

UniProt P08519, sequence (P08519 20-2040): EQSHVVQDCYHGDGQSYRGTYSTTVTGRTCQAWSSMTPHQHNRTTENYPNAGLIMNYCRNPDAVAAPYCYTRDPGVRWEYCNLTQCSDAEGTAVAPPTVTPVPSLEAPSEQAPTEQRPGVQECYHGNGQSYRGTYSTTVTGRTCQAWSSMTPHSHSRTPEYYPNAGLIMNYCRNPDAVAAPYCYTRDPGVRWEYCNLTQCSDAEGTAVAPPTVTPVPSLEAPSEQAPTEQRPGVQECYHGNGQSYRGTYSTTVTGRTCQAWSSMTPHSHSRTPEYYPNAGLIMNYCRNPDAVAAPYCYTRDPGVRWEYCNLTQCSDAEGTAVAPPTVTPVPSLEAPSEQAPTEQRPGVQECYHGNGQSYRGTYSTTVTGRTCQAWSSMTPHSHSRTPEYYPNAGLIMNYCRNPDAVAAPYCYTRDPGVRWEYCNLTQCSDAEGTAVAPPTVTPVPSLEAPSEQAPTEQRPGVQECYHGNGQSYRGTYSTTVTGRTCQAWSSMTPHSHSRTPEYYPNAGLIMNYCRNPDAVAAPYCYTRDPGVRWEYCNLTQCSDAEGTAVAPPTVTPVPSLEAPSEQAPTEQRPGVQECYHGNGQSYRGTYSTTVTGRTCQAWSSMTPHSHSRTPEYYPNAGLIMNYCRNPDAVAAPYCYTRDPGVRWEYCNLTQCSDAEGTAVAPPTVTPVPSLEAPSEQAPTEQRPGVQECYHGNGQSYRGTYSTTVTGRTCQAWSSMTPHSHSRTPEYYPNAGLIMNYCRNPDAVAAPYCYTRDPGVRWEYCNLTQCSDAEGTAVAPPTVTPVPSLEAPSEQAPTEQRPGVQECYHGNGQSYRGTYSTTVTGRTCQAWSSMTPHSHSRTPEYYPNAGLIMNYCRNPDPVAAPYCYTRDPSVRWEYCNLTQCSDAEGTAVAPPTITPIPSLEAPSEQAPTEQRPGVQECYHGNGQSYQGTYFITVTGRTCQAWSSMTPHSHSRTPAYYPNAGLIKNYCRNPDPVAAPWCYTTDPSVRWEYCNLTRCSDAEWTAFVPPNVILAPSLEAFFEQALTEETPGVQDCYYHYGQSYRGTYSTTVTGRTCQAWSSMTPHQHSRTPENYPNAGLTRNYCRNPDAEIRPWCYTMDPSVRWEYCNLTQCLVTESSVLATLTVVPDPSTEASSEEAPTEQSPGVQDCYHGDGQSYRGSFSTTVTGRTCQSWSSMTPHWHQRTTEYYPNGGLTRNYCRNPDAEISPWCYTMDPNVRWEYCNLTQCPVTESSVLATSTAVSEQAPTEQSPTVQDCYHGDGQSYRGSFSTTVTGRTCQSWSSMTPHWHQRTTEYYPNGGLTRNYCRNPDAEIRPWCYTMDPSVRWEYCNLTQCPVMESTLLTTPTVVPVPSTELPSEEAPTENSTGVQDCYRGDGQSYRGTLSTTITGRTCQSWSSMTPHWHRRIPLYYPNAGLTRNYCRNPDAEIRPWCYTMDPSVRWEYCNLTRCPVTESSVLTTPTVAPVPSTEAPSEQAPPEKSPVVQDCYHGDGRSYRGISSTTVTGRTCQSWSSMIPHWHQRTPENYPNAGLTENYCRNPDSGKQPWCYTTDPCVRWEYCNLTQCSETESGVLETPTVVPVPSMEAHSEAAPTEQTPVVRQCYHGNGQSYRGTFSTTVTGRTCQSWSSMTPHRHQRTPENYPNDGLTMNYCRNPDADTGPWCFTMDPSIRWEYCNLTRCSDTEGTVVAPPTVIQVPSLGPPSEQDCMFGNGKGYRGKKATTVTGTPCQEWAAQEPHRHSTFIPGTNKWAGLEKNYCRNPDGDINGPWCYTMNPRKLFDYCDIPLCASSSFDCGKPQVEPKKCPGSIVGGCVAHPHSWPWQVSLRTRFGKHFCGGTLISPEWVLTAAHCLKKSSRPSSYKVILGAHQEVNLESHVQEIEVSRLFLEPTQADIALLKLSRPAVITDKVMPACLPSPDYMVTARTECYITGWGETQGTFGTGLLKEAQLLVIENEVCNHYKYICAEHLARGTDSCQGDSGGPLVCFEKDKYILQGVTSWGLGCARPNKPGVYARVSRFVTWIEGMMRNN
UniProt P09429, sequence (P09429 whole entry): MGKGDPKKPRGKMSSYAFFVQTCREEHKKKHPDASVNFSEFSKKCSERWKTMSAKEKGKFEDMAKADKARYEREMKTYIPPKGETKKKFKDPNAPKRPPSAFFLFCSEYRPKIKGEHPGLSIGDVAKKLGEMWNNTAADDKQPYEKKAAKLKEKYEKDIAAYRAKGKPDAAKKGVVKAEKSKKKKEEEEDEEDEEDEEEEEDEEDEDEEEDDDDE

With Tetranectin (from UniProt P05452), the Kd was 2.05 nM in data set [1]; 13 nM in data set [2]; 490 nM in data set [3]; 290 nM in data set [4]; 400 nM in data set [5]; 25000 nM in data set [6].
